According to the RNAGym collection of RNA variant scans (doi:10.7554/elife.80360):

B1: HDV Ribozyme (parent)
chain: GGCCGGCAUGGUCCCAGCCUCCUCGCUGGCGCCGGCUGGGCAACAUUCCGAGGGGACCGUCCCCUCGGUAAUGGCGAAUGGGACCCA

Variants of: B1
Test: self-cleavage, relative activity (ratio to wild type); higher = more cleavage; co-transcriptional

Variant | self-cleavage
C30U G38C | 0
C30U G38U | 0.262
C30G A51G | 0
C30G A51U | 0.0297
C30A A77U | 0.0354
C30U A45U | 0.32
C30U A45C | 0.138
G29U C32U | 0.0665
G29U C32A | 0.135
C30G | 0.0914
C30A | 0.547
C30U | 0.746
G29U C36U | 0.187
G29U C36G | 0.201
G29U C36A | 0.187
G29U C33A | 0.0519
G29U C33G | 0.0369
G29U G73A | 0.0898
C30A C66U | 0.421
C30U A78G | 0.208
C30U A78C | 0.0978
C30U A78U | 0.101
G29U G82C | 0.0545
G29U G82U | 0.095

Variant | self-cleavage
C30U G31C | 0.13
C30U G31U | 0.0268
C30G C84A | 0
C30A C49U | 0.615
C30A C49G | 0.232
C30A C85U | 0.554
C30A C85G | 0.509
C30A C85A | 0.295
G29U U72A | 0.218
G29U U72C | 0.0811
G29U G39U | 0.111
G29U G39A | 0
G29U G55A | 0.122
G29U G55U | 0.0944
G29U G55C | 0.0692
G29U C75A | 0.0639
G29U C75G | 0.116
G29U C75U | 0.0767
G29U C62U | 0.0804
G29U C62A | 0.0773
G29U C62G | 0
C30A G40U | 0.183
C30A G40C | 0.0277
G29U G81A | 0.12

Variant | self-cleavage
G29U C57G | 0.198
G29U C57A | 0.151
G29U A42C | 0.125
C30G A42U | 0
C30U G35U | 0.0219
C30U A83U | 0.151
C30U A83C | 0.332
C30U A83G | 0.302
C30G C85A | 0.0308
C30A G53C | 0.47
C30A C64G | 0.485
C30U A56G | 0.665
C30A U60C | 0.582
C30A U46G | 0.256
C30A U46A | 0.147
G29U C84U | 0.0594
G29U C84G | 0.0277
C30A C58G | 0.596
C30A G59A | 0.561
C30G U37A | 0.0462
G29U C61U | 0.122
C30U G39U | 0.0936
C30U G39C | 0.0314
C30G A78C | 0.0744

Variant | self-cleavage
C30G A78G | 0.0923
C30G A78U | 0.0678
C30G A56U | 0.116
C30G A56G | 0.0941
C30G C62A | 0.122
C30G C62U | 0.185
C30U C49A | 0.698
C30U C49G | 0.31
C30A A42C | 0.14
C30A A42U | 0.241
C30G G55C | 0.111
G29U U47A | 0
C30U G59C | 0.67
C30U G59U | 0.831
C30A A83C | 0.0811
C30A A83G | 0.127
C30A C44A | 0.208
C30A C44G | 0.0831
C30G G82U | 0.0627
C30G A71C | 0.0554
C30G A71U | 0.0875
C30U G40A | 0.645
C30A U37A | 0
C30A G52C | 0.58

Variant | self-cleavage
C30A G52A | 0.522
C30G A43U | 0.194
G29U G68C | 0.106
G29U C49G | 0.133
C30A G73C | 0.119
C30A G73A | 0.237
C30A C75U | 0.101
G29U G53C | 0.125
C30A A71C | 0.345
C30A A71G | 0.517
G29U C66A | 0.201
G29U C66G | 0.0652
C30U C57G | 0.683
C30G G80A | 0.141
G29U A78C | 0
C30U C85A | 0.441
C30G U47G | 0.0678
G29U U60C | 0
C30G G50A | 0.0733
C30G G50U | 0.0978
C30U C63G | 0.47
C30G C33G | 0.115
C30G C33A | 0.0519
G29U U46C | 0

Variant | self-cleavage
G29U G52C | 0.0268
C30G A87G | 0.0702
C30G A87U | 0.14
G29U G34A | 0.111
G29U G34U | 0.0519
C30G C64U | 0.126
C30G C64A | 0.0361
C30G C64G | 0.0396
G29U A45G | 0.0923
G29U A45C | 0.113
C30U C41U | 0.447
C30U C41G | 0.212
C30G G76U | 0.109
C30U C62G | 0.475
C30G C41G | 0.0707
C30G G74A | 0.0733
C30G G40U | 0.0514
C30G G40C | 0.106
G29U A77C | 0.13
G29U A77U | 0.117
C30A G31U | 0.0733
C30A G31C | 0.115
C30G G35A | 0.191
C30G G35U | 0.138

Variant | self-cleavage
C30G G35C | 0.198
C30U G52A | 0.621
C30G G39U | 0.0692
C30G G39A | 0.0608
C30A C86G | 0.475
C30U G55U | 0.789
G29U A87U | 0.111
C30A G80C | 0.272
C30U A43C | 0.158
C30U A43G | 0.0755
C30U C84G | 0.306
C30U C84U | 0.319
C30U C84A | 0.252
C30U G50A | 0.728
C30U A71U | 0.372
C30U C48U | 0.506
C30U C48G | 0.597
C30U C48A | 0.739
C30U G53A | 0.547
C30U G53C | 0.554
C30U G53U | 0.697
C30A G38C | 0.203
G29U C41A | 0.0755
C30A G74A | 0.123

Variant | self-cleavage
C30A G74U | 0.223
G29U A70U | 0.0923
G29U A70G | 0.0396
G29U A70C | 0.0791
C30G C48U | 0.241
C30A U69A | 0.353
C30A U69G | 0.469
G29C U79G | 0
G29C U79A | 0.147
C30A C62U | 0.423
C30A G68A | 0.411
C30A G68U | 0.569
G29U C63G | 0.0386
G29U C63A | 0.106
G29U A56G | 0.227
G29U A56C | 0.202
C30G A77C | 0.095
C30G A77G | 0.189
G29U G50C | 0.153
G29U G50A | 0.104
C30A G34C | 0.119
C30A G34A | 0.0801
C30A G54C | 0.519
C30A G54A | 0.535

Variant | self-cleavage
C30A G54U | 0.5
G29U A83G | 0.0329
G29U A83C | 0.0692
C30A G81U | 0.134
C30A G81A | 0.111
C30A C32A | 0.0627
C30A C41A | 0.429
C30U A42U | 0.0615
C30A C63U | 0.415
C30A C63G | 0.251
C30U G68A | 0.546
C30A A70C | 0.491
C30A A70G | 0.332
C30U A70C | 0.525
G29U G35C | 0
G29U U37C | 0.208
G29U U37A | 0.0898
C30A C84A | 0.295
C30A C84U | 0.13
G29U G80A | 0.0934
C30U C75A | 0.0959
C30A C33G | 0.128
C30A C33U | 0.15
C30A C33A | 0.0615

Variant | self-cleavage
C30U C61U | 0.719
C30U G67C | 0.649
G29U C58U | 0.0292
G29U C58G | 0.0755
G29U A51U | 0.169
G29U A51G | 0.0692
C30U C66G | 0.607
C30G C57G | 0.208
C30G C57A | 0.138
C30A G67U | 0.339
C30A G67A | 0.623
C30G A83C | 0.0489
C30G C58U | 0.0906
C30G C58A | 0.0386
C30G C58G | 0.0804
C30G G52A | 0.0287
C30G G52U | 0.02
C30G G52C | 0.133
C30G U60C | 0.147
C30A C61A | 0.428
C30G C66A | 0.0282
C30G C49G | 0.203
C30G C49A | 0.116
C30G C49U | 0.0511

Variant | self-cleavage
C30A A43G | 0.0739
C30A A43C | 0.0326
C30G G68U | 0.0228
C30G G68A | 0.126
C30G U46C | 0.0831
C30G G38C | 0.0594
G29U G67U | 0.0817
G29U G67C | 0.136
G29U G67A | 0.12
C30A C57A | 0.688
C30A C57U | 0.587
C30A C57G | 0.284
C30A G50U | 0.729
C30G C44U | 0.0213
C30G C44G | 0
C30U A51G | 0.784
C30U A51C | 0.594
G29U G38U | 0.141
C30G G81A | 0.0978
C30G G81U | 0.158
G29U A71C | 0.0302
G29U A71G | 0.162
C30U C64A | 0.422
C30U C64G | 0.653

Variant | self-cleavage
C30G G34A | 0
C30G G34U | 0.0449
C30G G34C | 0.107
C30G U65A | 0.032
C30U G54C | 0.533
C30U G54A | 0.571
C30A G39C | 0.157
C30A G39A | 0.0489
G29U C48G | 0.106
G29U C48A | 0.117
C30A C48U | 0.533
G29C G82C | 0.0739
C30A A87C | 0.596
G29C U60C | 0.0449
G29C U60G | 0.199
C30G U69C | 0.18
C30G U69A | 0.148
C30U C36A | 0.193
C30U C36G | 0.0941
C30G G59A | 0.0692
G29U C64U | 0.211
G29U C64A | 0.0665
G29U C64G | 0.0739
G29C U65C | 0.138

Variant | self-cleavage
C30U A77C | 0.181
G29U C86G | 0.0346
G29U C86A | 0.169
C30A C36G | 0.148
C30G G73U | 0.0845
G29U C44A | 0.0297
G29U C44G | 0.0326
G29U G31C | 0.141
C30A A56G | 0.529
C30A U79C | 0.216
G29U G40C | 0.0583
G29U G40A | 0.0955
G29U U65C | 0.173
G29U U65G | 0.0755
C30G G31C | 0.104
C30G G31U | 0.126
C30A G82U | 0.166
C30A G82A | 0.0898
G29U U69C | 0.128
G29U U69G | 0.0615
C30G A70C | 0.106
C30A G55C | 0.653
C30G G67C | 0.0528
C30A G76C | 0.464

Variant | self-cleavage
C30A G76A | 0.585
C30A G76U | 0.554
C30A A51U | 0.735
C30A A51C | 0.612
C30A A45G | 0.391
C30A A45U | 0.375
G29U U79G | 0.0386
G29U U79C | 0.122
C30U C33U | 0.369
G29U G74C | 0.137
G29C U46C | 0.0755
G29U G76U | 0.137
G29U G76C | 0.12
G29C U72G | 0.208
G29C U72A | 0
G29U G59U | 0.147
G29U G59C | 0.104
C30U G34U | 0.135
C30U G34C | 0.0923
C30U C32G | 0.0652
C30U C32A | 0.155
C30G C86U | 0.0332
